{"source": "paper PMC3273807", "about": "(Nucleic Acids Research, 2011)", "proteins": {"B1": {"name": "Wild-type FokI restriction endonuclease (enzyme)", "chain": "KIRTFGWVQNPGKFENLKRVVQVFDRNSKVHNEVKNIKIPTLVKESKIQKELVAIMNQHDLIYTYKELVGTGTSIRSEAPCDAIIQATIADQGNKKGYIDNWSSDGFLRWAHALGFIEYINKSDSFVITDVGLAYSKSADGSAIEKEILIEAISSYPPAIRILTLLEDGQHLTKFDLGKNLGFSGESGFTSLPEGILLDTLANAMPKDKGEIRNNWEGSSDKYARMIGGWLDKLGLVKQGKKEFIIPTLGKPDNKEFISHAFKITGEGLKVLRRAKGSTKFTRVPKRVYWEMLATNLTDKEYVRTRRALILEILIKAGSLKIEQIQDNLKKLGFDEVIETIENDIKGLINTGIFIEIKGRFYQLKDHILQFVIPNRGVTKQLVKSELEEKKSELRHKLKYVPHEYIELIEIARNSTQDRILEMKVMEFFMKVYGYRGKHLGGSRKPDGAIYTVGSPIDYGVIVDTKAYSGGYNLPIGQADEMQRYVEENQTRNKHINPNEWWKVYPSSVTEFKFLFVSGHFKGNYKAQLTRLNHITNCNGAVLSVEELLIGGEMIKAGTLTLEEVRRKFNNGEINF"}}, "biological_target": "the molecule itself", "test": "fluorescence polarisation"}
{"protein": "B1", "values": [{"measurement": "binding result", "value": "binds"}]}
